Assay results as given in patent US7838495B2, “Compositions and methods of use of EPB1, and ErbB3 binding protein” (University of Maryland, Baltimore, priority 2007, dated 2010).

Assays:
LNCaP cells = test: Cell growth assays of LNCaP EPB1 transfectants (complete media, soft agar); format: cell-based, human
Protocol: Cell Growth Assays: To measure growth in complete media, cells (2×10^4) were seeded in triplicate in individual wells of 12-well tissue culture plates in RPMI-1640 with 10% FBS and cultured for the indicated number of days. Cells were trypsinized, stained with Trypan Blue (0.4%), and counted in a hemacytometer. For soft agar growth assays, increasing concentrations of cells (as indicated) were plated in 35 mm Petri dishes in complete media and 0.3% Difco Bacto Agar over an 0.5% agar layer. Colonies were counted after 10 days of incubation. For studies assessing the effect of dihydrotestosterone (DHT) on cell growth, cells (2×10^4) were plated in 12-well plates in complete media. After a 24-hour attachment period, the medium was replaced with steroid-free medium [phenol red-free RPMI 1640 and 5% charcoal-stripped FBS (Sigma)] for 48 hours. The final concentration of testosterone in the steroid-reduced media was less than 5 pM. After 48 hours of steroid depletion, cells were re-fed with fresh steroid-reduced medium with or without the indicated concentrations of DHT and/or bicalutamide (10 μM), and total cell numbers were assessed 7 days later.

AR-regulated genes = test: Validation by real-time RT-PCR, Western blot and ELISA in LNCaP EPB1 transfectants; format: cell-based, human
Protocol: Real-Time Quantitative Reverse-Transcription PCR: The method of […] et al. (Nakanishi et al., 2003, Quantitative Analysis of Breast Cancer Resistance Protein and Cellular Resistance to Flavopiridol in Acute Leukemia Patients, Clin. Cancer Res., 9: 3320-3328) was used as previously described. […] Real-time quantitative RT-PCR was then performed on the LightCycler (Roche, Indianapolis, Ind.) platform to determine the relative mRNA levels of EPB1, AR, kallikrein-2 and POV-1. The following forward and reverse primers were selected using Primer Express software and synthesized by Core Laboratory of University of Maryland School of Medicine: EPB1, sense: [NT] ID NO: 4) and antisense: [NT] ID NO: 5), sense: [NT] ID NO: 6) and antisense: [NT] ID NO: 7), Kallikrein-2, sense: [NT] ID NO: 8) and antisense: [NT] ID NO: 9), POV-1, sense: [NT] ID NO: 10) and antisense: [NT] ID NO: 11), Actin, sense: [NT] ID NO: 12) and antisense […] ID NO: 13). […] Target mRNA values were normalized using actin mRNA as an internal control. The relative quantitation of gene expression was performed using the comparative ΔΔ Ct (threshold method) using β-actin as an internal control ([…] et al., 2002, The Nonsteroidal Anti-Inflammatory Drug Sulindac Causes Down-Regulation of Signal Transducer and Activator of Transcription 3 in Human Oral Squamous Cell Carcinoma Cells, Cancer Research, 62:1004-1007). Western Blot Analysis: Briefly, total cell extracts were prepared by direct lysis of cells with buffer containing 50 mM Tris-HCl (pH 7.4), 1 mM EDTA, 250 mM NaCl, 1% Triton® X-100, 0.5 mM dithiothreitol (DTT) and 1 mM phenylmethylsulfonyl (PMSF). Protein concentrations were measured using a detergent compatible kit (BioRad, Hercules, Calif.). Proteins were resolved by SDS-PAGE and analyzed by Western blotting as described (Xia et al., 2001, Analysis of the Expression Pattern of EPB1, an ErbB-3-Binding Protein, Biochem. Biophys. Res. Commun., 289:240-244). The AR antibody was from Santa Cruz Biotechnology (Santa Cruz, Calif.), the EPB1 antibody from Upstate (Lake Placid, N.Y.), the polyclonal antibody to actin from Sigma (St. Louis, Mo.), and the POV-1 antibody was a gift. Measurement of PSA levels: Serum PSA levels were determined using a PSA ELISA kit from DSL, Inc (Webster, Tex.). […] Following a 1 h incubation and extensive washing of the plate, the wells were treated for 30 min with a second anti-PSA antibody labeled with horseradish peroxidase. After washing, the wells were treated with a tetramethylbendizine substrate for 10 min, and absorbance was read at 450 nm. The results of the microarray analysis were validated using real-time quantitative reverse-transcription PCR, Western blot, and ELISA methods. […] PSA secretion in the conditioned media of EPB1 and vector control cells was assessed by ELISA.

B1: EBP1: ErbB3 binding protein (SEQ ID NO: 2), AR corepressor, here ectopically expressed in cancer cells by stable transfection of an expression plasmid (protein, listed as Homo sapiens)
chain: MSGEDEQQEQTIAEDLVVTKYKMGGDIANRVLRSLVEASSSGVSVLSLCEKGDAMIMEETGKIFKKEKEMKKGIAFPTSISVNNCVCHFSPLKSDQDYILKEGDLVKIDLGVHVDGFIANVAHTFVVDVAQGTQVTGRKADVIKAAHLCAEAALRLVKPGNQNTQVTEAWNKVAHSFNCTPIEGMLSHQLKQHVIDGEKTIIQNPTDQQKKDHEKAEFEVHEVYAVDVLVSSGEGKAKDAGQRTTIYKRDPSKQYGLKMKTSRAFFSEVERRFDAMPFTLRAFEDEKKARMGVVECAKHELLQPFNVLYEKEGEFVAQFKFTVLLMPNGPMRITSGPFEPDLYKSEMEVQDAELKALLQSSASRKTQKKKKKKASKTAENATSGETLEENEAGD
modifications: FLAG tag
LNCaP cells; LNCaP EPB1 transfectants vs vector control, p<0.05
  growth rate in complete media: significantly decreased
LNCaP cells; LNCaP EPB1 transfectants, complete media (vector control 48 hours)
  doubling time: 72 h
LNCaP cells; LNCaP, highest cell concentration tested, ten days
  decrease of colony growth in soft agar: approximately 90%
AR-regulated genes; LNCaP EPB1 transfectants
  POV-1 mRNA decrease: about two-fold
  POV-1 protein decrease: about two-fold
  kallikrein-2 mRNA expression decrease: approximately 40%
AR-regulated genes; LNCaP EPB1 transfectants, Western blot
  AR protein decrease: more than five-fold
AR-regulated genes; LNCaP EPB1 transfectants, real-time PCR
  AR mRNA down-regulation: more than 2 fold
AR-regulated genes; conditioned media of LNCaP EPB1 transfectants vs controls, ELISA
  secreted PSA protein downregulation: 10 fold
